In the domain aggregation screens of Martell et al. (2025):

Test: soluble fraction after stress (log2 fold change); higher = more stays soluble; pooled small domains, quantitative proteomics
Details: stress: 50 degC
Outline: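 Custom libraries of small protein domains were pooled and measured in a high-throughput format, with quantitative proteomics as the read-out. Each library was stressed at 50°C. The value is the log2 fold change in the amount of each protein that stays soluble after stress, used as a measure of aggregation propensity; higher values mean more of the protein stays soluble.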

## HMKISQSRKAGKLVLESELKRGGVSLDQYRGGRMSRILELIGVKSLNELLTDLGTGKKTGALVAERFFSGL
  soluble fraction (log2): -0.444

## HMPLSVRQRMSDILSNLKTSDFTNFADLFDPKEGRTGITVTFIAILELLREFLIEVVQSDHYQPLHVRAAS
  soluble fraction (log2): -0.291

## HMERYFVLVIYDIVDNKKRLKLSKYLLGYGIRVQKSAFEMMITKEKYNKLIKELPTYIEEGEDSIRLY
  soluble fraction (log2): 0.132

## HMLTAPMPGIVTEILVKEGQRVRSGQPLMILEAMKMEHQVTAPKSGQIEKIYFSEGEKVDMGSDLLSIS
  soluble fraction (log2): 0.181

## HMLTLSGPEHAVVRALWPEPELDFDVLIRKTGLPSAQLMTLAMQLEMKKIIRRLPGRRLALMDDIRR
  soluble fraction (log2): -1.85

## HMGMAQELMESRLTAVFTSGKDQLAVLQRKDGSTLKLGADSKPWRIESFDGRKAVFVSADQQRVERLL
  soluble fraction (log2): -0.209

## HMEAEGLDFAPMPGEIGKKLWQEVSKEAWAGWLKHQTMLVNENRLSFVDPAARKYLTEQTEAYFFG
  soluble fraction (log2): 0.131

## HMAASTPGTVTGSVVNVRPDPSTNNDRIGVIYQGTKVEILAQVGEWYNIQFGPVSGWVHKDYISTGA
  soluble fraction (log2): 0.00638

## HMSQDEKITNYIYEGNKNTQTEAFVEAEKSYRKALSLSPEKPEALYNLGNTHFLDKQYDEASQRFF
  soluble fraction (log2): 0.0647

## HMDEVLDQFVRGQIYGYIRANPGDIYSSIRDNLGLKNGVTTYHLDVLAREEYVYSEIDGTNRRFYPSGWEE
  soluble fraction (log2): -3.2

## HMTANPHKPEPLQIDTSDITPGVTVIHKAFGNGTVVSVDNNRILIDFDGIEKKFPFPGAFLYGFLQK
  soluble fraction (log2): 0.132

## HMLNERQKKIIKILKDNKNWMTGKELSEFLNVSDRTIRSDIEYINRYNNALIESNVKNGYHLNFE
  soluble fraction (log2): 0.12

## HMNSYKGELLVDDKNIRLDLYLFNQFNFFSRTKIKNYILKGNVLVNNNKTSPSYILKGSEKIYYDFSVS
  soluble fraction (log2): -1.2

## HMNSFKIYPNPSSREVVRFNQAQDVKVYDTLGKLILSAKNTSAIDTKSFNTGIYFIKTANGLTKKLIV
  soluble fraction (log2): -0.695

## HMDKVEQLMQNPVIQEKMSEGDRELLRNASLVVLGRLEDDGSIIQRFVELFGEEAYERLKSELM
  soluble fraction (log2): 0.259

## HMDGLTEQQADDILAFISIKGTNAEVLAALENYAGRNETFDTGLSELKVVASNLAAFGMPEENFVVDL
  soluble fraction (log2): 0.0102

## HMAPKSALKIIEQISNNPRATMTDLANLTGYSRRWVAQTIKRLQEENIIKRIGSDKSGYWEIIG
  soluble fraction (log2): -0.321

## HMRREIRLTVTEEIVLMKFLLTQIPYKNRDNFKTLLNDRQIRVNGSVVTWYNHPLKPGQEVTIGWFKM
  soluble fraction (log2): -0.168

## HMSGWIATGTATSTGNDVRVRSTPDATVNNNILLTLNKGNRFEIDGQTQNGFYHIKVNDTIGWISGLYVKE
  soluble fraction (log2): -0.499

## HMIIENIVVEIKGEVYNPGLYILEQGSRINDLIELSGGFTKDANGTDLNLAKVLSDGEVIIVSKKG
  soluble fraction (log2): -0.2

## HMTTIFDNINGELRRRHLTQQDLAKTIEIDRRTWSKWQDKNDMPASVLLQIAKWLNVTLDYLTRD
  soluble fraction (log2): -2.08

## HMDAYMIGHNIAKWRKEKGMTQDQLAEHLSVSGQAVSKWENGASLPDIAILPKLAEIFDVTMDQLFSR
  soluble fraction (log2): 0.144

## HMGNWEQQLRSWADGELATGKQDILTTAVPAFERALIETALSHTNGRKRDAAELLGWGRNTLTRKLKELGM
  soluble fraction (log2): -0.371

## HMRKATEVPFTAFKDSIENSHGKLSKAGLARHLADEYGMSQRNMERRINNLIDNKTIKYGNEGGLVWIG
  soluble fraction (log2): -0.0291

## HMAHKRVDGTIVTPLTADTIVLRTGTHGEQPFEIRDTTRHKLESLQKGDMVILLIDTDNKVIDVAIPP
  soluble fraction (log2): 0.423

## HMSPSDLSAEAQKVYALLDGRELSFDTLVEESGFDTGSLLAILMRLEMKMLVEHGADQVYRRSG
  soluble fraction (log2): -0.58

## HMDGQPLSERQQEILRWVAEGLSNREIGERLNITPNTVRDHLSEVMRRLEVSNRTSAVSTAFHLGLLP
  soluble fraction (log2): -0.115

## HMGGEGQIEIREREGIPAEAWVDGVMRGQTPLRVEHVSIGTRRVELRAEGRPPVAADVLVRPTVTALVELS
  soluble fraction (log2): 0.271

## HMGVQKGKDNALAVQQWIAERDATGDFGEYERRGIINRSALFDELGIPRSSMGSNDQIRQMIEAADVRWF
  soluble fraction (log2): -0.189

## HMPGKVSDAGATAKDNRLFLEAVFWRVRTGSPWRDLPPAFGHWNSQFRRFRRWAKAGVFESLFNA
  soluble fraction (log2): 0.0893

## HMISADSSKVDTLVQVYSNMKPIQAAQVFEKMDEDLVIEILSRMKKKNAADILNLIKTEKAQVFAEKYA
  soluble fraction (log2): 0.0124

## HMADVSPEAQHKMVEAFAQFGVTKEHIEQRIQRRLDAIQPAQMVTLKRIFASLRDGMSTPAEWFE
  soluble fraction (log2): -0.227

## HMKTGNIIAVSLVWKGKYYMIRMFFPSAARPSRADVQTEIEKVYPGSKLSSFSVSDYEPGQPLLQV
  soluble fraction (log2): -2.31

## HMTDEEFSRIVKYTAVRYGINLYHKKVMVEGRLSNYLAANGFKSYTEYMDRVEADYTGQEAQNLINILTT
  soluble fraction (log2): -0.258

## HMNADSLIGENIRISERVSNMDQTGMAVVHGQEWTVRTRNDNEIIEPGEEAKILAISGVKLIVEK
  soluble fraction (log2): -0.119

## HMGIAERKEKQKLEIRNAILEASRKLIVEEGFEKVTMRKIADLIEYSPTTVYLYFKDKNEILFHLHQ
  soluble fraction (log2): -1.37

## HMSKIRSEINKFSSDADKPILEWLFERYHWASQWRFVARFSEQRYGVLSYEINRVWEPTIEGRALYDQL
  soluble fraction (log2): -2.34

## HMWMTAQDFRNSSLPWSATTSYNEGQSVRVVDGSNTYYYIAIVKTQPGQSPTTHPTSWREVDA
  soluble fraction (log2): -0.99

## HMKPDMAVIVGSRTLTFATTTDRQILVLRTDGTMVNRLSMKAGETRTITLPAGVYIVNGKKIIV
  soluble fraction (log2): -0.808

## HMDFPYISGIEIAAIKNREFIRIETDKAQEIAIALDKSGIPFSARFSDAEMVLTYDGSYKEQVEDIIAKA
  soluble fraction (log2): -0.0417

## HMSMTVHGALRLLQLPTIADRPYTLKEIREAYREQAQNHHPDAGGSADAMRRLNEAYQFLKERYRQA
  soluble fraction (log2): -0.16

## HMPEVYSFEVNEGAAGKRLDIFLSGEIEGLTRSFIQKLISEGMATVNQEPPRASYRVKTRDLVELQIPDPE
  soluble fraction (log2): -0.488

## HMTGGLLVHVAGAVGAPGVVSLPEGARVVDAIEAAGGAREDADTDQLNLARPVVDGEQVRVPVVGEVLE
  soluble fraction (log2): -0.0748

## HMDNPNVMAQVKSLLASKGLSEQEVKERLKAKGLNIDAMSDAEIAQNRSVIEQTIAELEAEKKKAG
  soluble fraction (log2): -0.128

## HMSDGHLIKVLEVLDGGEAFLGRTANGGTARFSLGQLADIRRGSVVFVSEDRWEVVPDSAWPEI
  soluble fraction (log2): -0.528

## HMRDKTMLGNVIRTRRKKMNLTLEELSKQVGITSGGLSQIERGLVDPSLSVLRRISRALNLPMNVMFSE
  soluble fraction (log2): -0.281

## HMRDADRYAFMQENVEDFAKDMRRKHMTYDVLYEEYIRRTDNPYGYTQFKAIVQEYEKNHDYK
  soluble fraction (log2): -0.141

## HMNGVSNETLIQKSALYEELNQPDLALKMINTALKKDSVNIEILHRLVTLLMSQEKNEEAILYNQKIIDH
  soluble fraction (log2): 0.022

## HMLTKSELVFDTLKKRIIDGELEPGTELVISRISEEFNVSTIPVREAIKTLASEGLVEMEPHKSAKVAE
  soluble fraction (log2): -0.0631

## HMNIDEIIGKKAVVIESIDNLQGTGKVRYQGMEWTARAEEENDRIEKDAEVEIIAVKGVKLIVKMK
  soluble fraction (log2): -0.13

## HMAAVPQPQRSETIVYIGGRKFYVHTVQAGETLYSIARLYGVSEQTLVANNPTMADVVKADQNVRIPVPA
  soluble fraction (log2): -0.272

## HMISKAQLFSEEELTELYRATGYQLENDPEIHREQFEALQAVRAKIEYAVPDVQEKLEQEQNLGQQ
  soluble fraction (log2): 0.295

## HMTTYSVDLGDIRAVADSDGKLVELTLHAAVTTHYSHSELADRLNLAFTALREEAQADYETRY
  soluble fraction (log2): 0.127

## HMTRQPSAKEHAVLTAVKEGLRRDGRAPTVRALADMTGAASTSTVQRRISALIDLGLLRRTDGTLEVVE
  soluble fraction (log2): -0.000402

## HMDDIVPHSTKNHIIKTFLSLMNSLDIITDKNKKSLNQNVHIIFNKFNFSKKEANLFIGVLNRIQKALK
  soluble fraction (log2): 0.552

## HMNQEQQSAVMSALKATLPDLEAALEARQFKESKQLLKTAQNQFQQLDGRNRRGFQARIQLLAGQFRELS
  soluble fraction (log2): -0.227

## HMPTVLKQGSTGQEVKELQQALSKLGYRVTVTGEFDTATHYGVVRFQRKHRLTIDGIVGPQTLSKIRAHQK
  soluble fraction (log2): -2.86

## HMFVTGTTIKKLREEKRMTQGELAQMIGVSDKAVSKWETGRGLPDISLLEPLSRALGISVAELFAGQH
  soluble fraction (log2): -0.0392

## HMDFTISDADFHRLVQFIQQNYGVALSKKRQLISSRLSHSLRELGYKDFRTFLEHLFSTRDPADLELVLNK
  soluble fraction (log2): -0.989

## HMKSSISKNWNPSKDAIEILTRAGIDQEFLENLIPEFVIYWIERSDVLISYNSKFIEHARLKWAQHTAEIQ
  soluble fraction (log2): -0.0223

## HMFTIGENIRDLRLERAITQEQLAEQLNVSAPAVSKWERGEAYPDITLVPKLAEILGVSTDKLFGVD
  soluble fraction (log2): -0.0643

## HMKTERTVRVQDQHLHYTLEEKPIKNVNLRIRPDGSVYVSAPFGTSRTLIDDFVASKSKQILAIQQAQSAM
  soluble fraction (log2): -0.0134

## HMGTRPIQIASFSKEENAKRAVEALAKIGITAQPQKSGSATKAVWGVVANGDADLLAKIKAAGFADAYFL
  soluble fraction (log2): 0.0667

## HMNADAPWSPFSPGFTGPMNRPVIGLVTKADLANPQRISLVESWLVQAGAQKVFVTSALENTGVDEMFIFL
  soluble fraction (log2): -0.124

## HMPATTMMVVVDRDLPYGHVLTDRDVRLETRRATSPGASVAFTSIDPVLGQSLTRPLGAGTPVGRADLR
  soluble fraction (log2): -0.155

## HMKKIFIDAPLDTMITIPKDTTHHLLTVFRHKMEKPVLVGGSDGRTGVYQIQDVVDGEASAKLVGDIQ
  soluble fraction (log2): 0.514

## HMTSMNNTEELIDMANKIIDNNPNMVLKYKEGRNVLDFFIGQVMKETKGRANPSATSKIFKDLLEK
  soluble fraction (log2): 0.169

## HMELDLPLEELGLSTRVLHSLKEEGIESVRALLALNLKDLKNIPGIGERSLEEIKEALEKKGFTLK
  soluble fraction (log2): -0.0498

## HMTDFNTFSDAIIAAVGSRASGLKVVDNAVSVMVDVSGLNEDQRVEIEADVRAAAEHAGAQSVRIMLT
  soluble fraction (log2): -0.438

## HMEKSLSAQVYEKIKAGIISLKYPPGSVLKERELSESLGVSRTPVREAIQRLSQESWLVPGEGKRMQVRP
  soluble fraction (log2): 0.134

## HMAKDDFMSFVKAVWPEFIEGAHHRVIAQKFNDLATGKITRLIVNMPPRHTKSEFASYLLPAW
  soluble fraction (log2): 0.107

## HMEMKVIPFNQMTRDQFDQLDRFLGRLAAAQAMGSLRLTKAQQNYFLNQVKQLDLYRKRILN
  soluble fraction (log2): -0.787

## HMGGKTAVVTGSLVNVRKGPGTGNALVGQVARGDELPVLGQDGDWYQIKLANGSNGWVAGWLVSLKDAVP
  soluble fraction (log2): 0.432

## HMLSNYIGMTLGEAKRNLGQGVNITVNGPNNDNAEVTGQDPTSGSSFDKSKDTITLTT
  soluble fraction (log2): 0.0581

## HMFDKVSVNNLAEAIGRLDGIYQDVLRLYYVHELPSKEIGKILNINHLTVNTRLKRAREKLFKMLKEE
  soluble fraction (log2): -2.57
